# Measurements as given in paper PMC6783537, “Structural basis of the activation of type 1 insulin-like growth factor receptor” (Nature Communications, 2019).
# B1: full-length mouse IGF1R (MmIGF1R), residues 1–1262, Y951A, D1107N (receptor)
# chain: not shown
# notes: Mouse type 1 insulin-like growth factor receptor with C-terminal tail truncation and kinase dead mutation, residues 1–1262, Y951A, D1107N; Disulfide-linked covalent dimer of two protomers; it is written here as one chain per protomer; also called type 1 insulin-like growth factor receptor; not shown: Tsi3, C-terminal, cleaved
# Target: the molecule itself
# Assay: cryo-EM structure; purified MmIGF1R and HsIGF1 mixed at molar ratio 1:2, 1 h at 4 °C, complex purified by SEC in 20 mM Hepes-Na pH 7.4, 200 mM NaCl, 0.03% DDM; 4.3 Å
protein,measurement,value
B1,stoichiometry N,2
